According to publication PMC11560936:
Like-named read-outs stand apart in the source and are kept apart here.

Key:
Test in all cases: ITC
[1] = biological target: Penaeus monodon Rab7 wild type (PmRab7-WT) (Penaeus monodon) (UniProt Q00P14)
[2] = biological target: Penaeus monodon Rab7 wild type (PmRab7-WT) (Penaeus monodon) (UniProt Q00P14); remark: listed apart in the source
[3] = biological target: Penaeus monodon Rab7 wild type (PmRab7-WT) (Penaeus monodon) (UniProt Q00P14); remark: listed apart in the source
[4] = biological target: Penaeus monodon Rab7 L129F mutant (PmRab7-L129F) (Penaeus monodon) (UniProt Q00P14)
[5] = biological target: Penaeus monodon Rab7 Q67L mutant (PmRab7-Q67L) (Penaeus monodon) (UniProt Q00P14)
[6] = biological target: Penaeus monodon Rab7 T22N mutant (PmRab7-T22N) (Penaeus monodon) (UniProt Q00P14)
[7] = biological target: Penaeus monodon Rab7 wild type (PmRab7-WT) (Penaeus monodon) (UniProt Q00P14); remark: listed apart in the source
[8] = biological target: Penaeus monodon Rab7 wild type (PmRab7-WT) (Penaeus monodon) (UniProt Q00P14); remark: listed apart in the source

Substance: White spot syndrome virus envelope protein VP28 with His6 tag (VP28-His6) (natural protein)
- Kd [1]: 0.924 µM
- dH [1]: -15.4 kcal/mol
- stoichiometry N [1]: 0.795 VP28:Rab7
- Kd [2]: 0.826 µM
- dH [2]: -17 kcal/mol
- stoichiometry N [2]: 0.738 VP28:Rab7
- Kd [3]: 1.92 µM
- dH [3]: -20.2 kcal/mol
- stoichiometry N [3]: 0.703 VP28:Rab7
- Kd [4]: 0.128 µM
- dH [4]: -25.7 kcal/mol
- stoichiometry N [4]: 0.519 VP28:Rab7
- Kd [5]: 1.99 µM
- dH [5]: -33 kcal/mol
- stoichiometry N [5]: 0.582 VP28:Rab7
- Kd [6]: 0.334 µM
- dH [6]: -20 kcal/mol
- stoichiometry N [6]: 0.625 VP28:Rab7
- Kd [7]: 0.0225 µM
- dH [7]: -22.1 kcal/mol
- stoichiometry N [7]: 0.543 VP28:Rab7
- Kd [8]: 0.352 µM
- dH [8]: -7.23 kcal/mol
- stoichiometry N [8]: 0.682 VP28:Rab7
